According to the supplement of paper PMC12042874:
± gives the uncertainty stated by the source.

Experiment: amyloid nucleation score (Sup35N fusion, yeast selection) (log enrichment); library NNK3; higher = more nucleation; inactive = no reads after selection
Method in brief: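 In psi-negative yeast, Sup35N fusions carrying peptides of 20 random codons were induced with 100 μM copper sulfate for 24 hours. The cells then grew 7 days at 30°C on medium lacking adenine and uracil, and plasmid inserts from input and output were Illumina-sequenced, excluding sequences with under 100 input reads. Nucleation score is the DiMSum log enrichment of output over input reads, centred on the mode score of non-aggregating sequences.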

Q: With IFVQAYLRGSEICALGDWRL as the substance, how does the amyloid nucleation score read?
A: inactive

Q: For IFVRSLAQLGLIFDFHIFWE, which amyloid nucleation score is on record?
A: inactive

Q: With IFVWGNNLTMSLSVFNNA as the substance, how does the amyloid nucleation score read?
A: 2.58 ± 0.072

Q: For IFWSFTGT, which amyloid nucleation score is on record?
A: inactive

Q: Which amyloid nucleation score does the source give for IFWYEDKIYKMGWQFGGIAY here?
A: 1.1 ± 0.11

Q: With IFYFHQFNCMPGLAFTSVIG as the substance, how does the amyloid nucleation score read?
A: inactive

Q: For IGDMSLLLTCGGWSLIQLQA, which amyloid nucleation score is on record?
A: inactive

Q: Which amyloid nucleation score does the source give for IGFAGSVM here?
A: inactive

Q: With IGHSTTYHKRQECSLVQWSS as the substance, how does the amyloid nucleation score read?
A: inactive

Q: Which amyloid nucleation score does the source give for IGLRLVATLIDLRNADIGYG here?
A: inactive

Q: With IGMMYVIGIYLIGGNYSIR as the substance, how does the amyloid nucleation score read?
A: inactive

Q: For IGNFRGL, which amyloid nucleation score is on record?
A: inactive

Q: With IGPIWVPYHMSIIRSLLFGI as the substance, how does the amyloid nucleation score read?
A: inactive

Q: Which amyloid nucleation score does the source give for IGRVTSMGRMLHGNW here?
A: inactive

Q: Which amyloid nucleation score does the source give for IGTDWRARAMAALYI here?
A: inactive

Q: With IGTSAWLEKRASLLVCMKKA as the substance, how does the amyloid nucleation score read?
A: inactive

Q: For IGVIWRFVLWSGPRTDSQVS, which amyloid nucleation score is on record?
A: inactive

Q: With IGVQATVICYWRIMNRGHKR as the substance, how does the amyloid nucleation score read?
A: inactive

Q: Which amyloid nucleation score does the source give for IGYVMFGTSSSAFRITYISK here?
A: inactive

Q: For IHCSDVGALRMYVPSTGPFS, which amyloid nucleation score is on record?
A: -0.213 ± 0.64

Q: Which amyloid nucleation score does the source give for IHDMVQYERCDNRNSNRVHE here?
A: inactive

Q: Which amyloid nucleation score does the source give for IHILTKVWFSCVRRSLS here?
A: inactive

Q: For IHNGKDTLAVVWYGFLIMFW, which amyloid nucleation score is on record?
A: inactive

Q: Which amyloid nucleation score does the source give for IHPPSGYPGSGLSLCCSKNS here?
A: inactive

Q: For IHRNNNFFRRGYVWSYEEHH, which amyloid nucleation score is on record?
A: inactive

Q: For IHSDLTVSCNIYWKSY, which amyloid nucleation score is on record?
A: 0.922 ± 0.14

Q: With IHTQAFMGMFSLHWNHVFDL as the substance, how does the amyloid nucleation score read?
A: inactive

Q: Which amyloid nucleation score does the source give for IHYRANRCRRYCAFIYKAN here?
A: inactive

Q: With IIDYRDQRVLESLRFYVLCS as the substance, how does the amyloid nucleation score read?
A: inactive

Q: With IIFLQIPNLFMGNKTRQKGA as the substance, how does the amyloid nucleation score read?
A: inactive

Q: Which amyloid nucleation score does the source give for IIFNFFSRVLELLMLGYPYT here?
A: inactive

Q: Which amyloid nucleation score does the source give for IIHEFFSTQLILYDCIDRWF here?
A: inactive

Q: Which amyloid nucleation score does the source give for IIHLNLSNVWYTPSGWYRVC here?
A: 2.3 ± 0.063

Q: For IILQNFPNRKYMCLGAKMAS, which amyloid nucleation score is on record?
A: inactive

Q: With IILRFDGFTMSSPRNLVIDG as the substance, how does the amyloid nucleation score read?
A: inactive

Q: Which amyloid nucleation score does the source give for IILRTWVSTLQSNSAIEVTL here?
A: inactive

Q: Which amyloid nucleation score does the source give for IIPKRLDVR here?
A: -0.397 ± 0.7

Q: With IISHKQRSRVIVCSGS as the substance, how does the amyloid nucleation score read?
A: inactive

Q: With IISMVCED as the substance, how does the amyloid nucleation score read?
A: 0.297 ± 0.32

Q: With IISSSL as the substance, how does the amyloid nucleation score read?
A: inactive

Q: For IIVLPEKRPR, which amyloid nucleation score is on record?
A: inactive

Q: With IKAVSYTVSVSPPCFSSKSH as the substance, how does the amyloid nucleation score read?
A: 0.402 ± 0.18

Q: With IKCDLRSSVAWDLSVILYSF as the substance, how does the amyloid nucleation score read?
A: inactive

Q: With IKDGFQGNVFFAVDCFVAYD as the substance, how does the amyloid nucleation score read?
A: inactive

Q: With IKGIPKSIGSSSLGLHNHTV as the substance, how does the amyloid nucleation score read?
A: inactive

Q: For IKKQYINSFIDSATMKGIKV, which amyloid nucleation score is on record?
A: inactive

Q: With IKNEQSARRGASSCGGTADK as the substance, how does the amyloid nucleation score read?
A: inactive

Q: For IKWEQRLVVYIAYKKHRWQR, which amyloid nucleation score is on record?
A: inactive

Q: With ILAHAHYVYVALARWPTYGY as the substance, how does the amyloid nucleation score read?
A: -0.35 ± 0.98

Q: With ILCANGYRSVFSYFLFGCAY as the substance, how does the amyloid nucleation score read?
A: inactive

Q: For ILCCTCYLRDIDMVVGACDG, which amyloid nucleation score is on record?
A: 1.62 ± 0.063

Q: Which amyloid nucleation score does the source give for ILDFDFTSLPNMMRGCRSHL here?
A: inactive

Q: With ILFNENITKMSLFNCDKFIC as the substance, how does the amyloid nucleation score read?
A: 1.1 ± 0.15

Q: With ILGFLCPLFSFFFSGGYFLG as the substance, how does the amyloid nucleation score read?
A: inactive

Q: For ILGIIMI, which amyloid nucleation score is on record?
A: inactive

Q: Which amyloid nucleation score does the source give for ILGIRYVIRINFLTRVRIHN here?
A: inactive

Q: Which amyloid nucleation score does the source give for ILHHTWYMF here?
A: inactive

Q: Which amyloid nucleation score does the source give for ILIGPSGFMYLDVSFFQFQR here?
A: 0.856 ± 0.25

Q: Which amyloid nucleation score does the source give for ILILFYLRFHNIRRYTCTFR here?
A: inactive

Q: With ILILS as the substance, how does the amyloid nucleation score read?
A: inactive

Q: With ILLALN as the substance, how does the amyloid nucleation score read?
A: 0.03 ± 0.88

Q: For ILLGIEAPCVSITYYFKTFL, which amyloid nucleation score is on record?
A: 1.32 ± 0.13

Q: For ILLSVSWGAR, which amyloid nucleation score is on record?
A: 1.49 ± 0.13

Q: Which amyloid nucleation score does the source give for ILMPKTVVTVYISNMCDYSQ here?
A: 2.58 ± 0.071
